Results from patent publication US20150307603A1 (MODIQUEST B V, published 2015).
Non-standard residues stand in square brackets, D forms with d. No end group written: not given here. Cit = NC(=O)NCCC[C@H](N)C(=O)O

Experiments:
[1] = biological target: T1, human recombinant histone 2A (human); experiment: ELISA, Ab 0.08 ug/well
T1 construct: Non-deiminated; also called H2A
Description: (§1) The resulting OD (y-axis) is a measure for antibody binding. H1-recombinant histone 1; H1/p2-huPAD2 recombinant histone 1; H1/p4-huPAD4 recombinant histone 1, and so forth (x-axis).

[2] = biological target: T2, huPAD2-deiminated human recombinant histone 2A (human); experiment: ELISA, Ab 0.08 ug/well
T2 construct: also called H2A/p2; histone 2A/p2
Description: as §1

[3] = biological target: T3, huPAD4-deiminated human recombinant histone 2A (human); experiment: ELISA, Ab 0.08 ug/well
T3 construct: also called H2A/p4; histone 2A/p4
Description: as §1

[4] = biological target: T4, human recombinant histone 2B (human); experiment: ELISA, Ab 0.08 ug/well
T4 construct: Non-deiminated; also called H2B
Description: as §1

[5] = biological target: T5, huPAD2-deiminated human recombinant histone 2B (human); experiment: ELISA, Ab 0.08 ug/well
T5 construct: also called H2B/p2
Description: as §1

[6] = biological target: T6, huPAD4-deiminated human recombinant histone 2B (human); experiment: ELISA, Ab 0.08 ug/well
T6 construct: also called H2B/p4
Description: as §1

[7] = biological target: T7, huPAD2-deiminated human recombinant histone 3 (human); experiment: ELISA, Ab 0.08 ug/well
T7 construct: also called H3/p2; histone 3/p2
Description: as §1

[8] = biological target: T8, huPAD4-deiminated human recombinant histone 3 (human); experiment: ELISA, Ab 0.08 ug/well
T8 construct: also called H3/p4
Description: as §1

[9] = biological target: human recombinant histone 4 (human, UniProt P62805 2-103); experiment: ELISA, Ab 0.08 ug/well
Description: as §1

[10] = biological target: T9, CFC-1; experiment: ELISA, Ab 0.08 ug/well
T9 construct: Positive control for anti-citrulline reactivity; also called cfc1 XG; Cfc1-peptide
Description: as §1

[11] = biological target: T10, peptide no. 4 (human histone 2A) (human, also: biotin-labelled); experiment: ELISA, Ab 0.08 ug/well
T10 construct: also called peptide 4
T10 peptide: QFPVG[Cit]VHRLLR
Description: (§2) Biotin and citrulline-containing peptides derived from histone 2A were immobilized on NEUTRAVIDIN®-coated 96-well ELISA plates (0.3 μg/well). CFC-1 and CFC-0 were coated at the same concentration and served as positive and negative controls, respectively, for specific anti-citrulline reactivity and as coating controls. Non-coated wells were used to test for aspecific binding of the antibodies. […] Detection of bound anti-citrulline antibodies was performed by incubating the wells with rabbit anti-human HRP (1:2000) for 1 hour at RT followed by incubation with TMB substrate. The resulting OD (y-axis) is a measure for antibody binding.

[12] = biological target: T11, peptide no. 5 (human histone 2A) (human, also: biotin-labelled); experiment: ELISA, Ab 0.08 ug/well
T11 construct: also called peptide 5
T11 peptide: VGRVH[Cit]LLRKGN
Description: as §2

[13] = biological target: T12, peptide no. 6 (human histone 2A) (human, also: biotin-labelled); experiment: ELISA, Ab 0.08 ug/well
T12 construct: also called peptide 6
T12 peptide: VHRLL[Cit]KGNYSE
Description: as §2

[14] = biological target: T13, peptide no. 8 (human histone 2A) (human, also: biotin-labelled); experiment: ELISA, Ab 0.08 ug/well
T13 construct: also called peptide 8
T13 peptide: AGNAA[Cit]DNKKTR
Description: as §2

[15] = biological target: T14, peptide no. 9 (human histone 2A) (human, also: biotin-labelled); experiment: ELISA, Ab 0.08 ug/well
T14 construct: also called peptide 9
T14 peptide: DNKKT[Cit]IIPRHL
Description: as §2

[16] = biological target: T15, peptide no. 11 (human histone 2A) (human, also: biotin-labelled); experiment: ELISA, Ab 0.08 ug/well
T15 construct: also called peptide 11
T15 peptide: LQLAI[Cit]NDEELN
Description: as §2

[17] = biological target: T16, peptide no. 12 (human histone 2A) (human, also: biotin-labelled); experiment: ELISA, Ab 0.08 ug/well
T16 construct: also called peptide 12
T16 peptide: NKLLG[Cit]VTIAQG
Description: as §2

[18] = biological target: T9, CFC-1; experiment: ELISA, Ab 0.0032 ug/well
Description: as §2

[19] = biological target: T17, peptide no. 1 (human histone 2A) (human, also: biotin-labelled); experiment: ELISA, Ab 0.0032 ug/well
T17 construct: also called peptide 1; AAASGXGKQGGK
T17 peptide: AAASG[Cit]GKQGGK
Description: as §2

[20] = biological target: T10, peptide no. 4 (human histone 2A); experiment: ELISA, Ab 0.0032 ug/well
Description: as §2

[21] = biological target: T11, peptide no. 5 (human histone 2A); experiment: ELISA, Ab 0.0032 ug/well
Description: as §2

[22] = biological target: T18, peptide no. 7 (human histone 2A) (human, also: biotin-labelled); experiment: ELISA, Ab 0.0032 ug/well
T18 construct: also called peptide 7
T18 peptide: GNYSE[Cit]VGAGAP
Description: as §2

[23] = biological target: T13, peptide no. 8 (human histone 2A); experiment: ELISA, Ab 0.0032 ug/well
Description: as §2

[24] = biological target: T19, peptide no. 10 (human histone 2A) (human, also: biotin-labelled); experiment: ELISA, Ab 0.0032 ug/well
T19 construct: also called peptide 10
T19 peptide: TRIIP[Cit]HLQLAI
Description: as §2

[25] = biological target: T15, peptide no. 11 (human histone 2A); experiment: ELISA, Ab 0.0032 ug/well
Description: as §2

[26] = biological target: T16, peptide no. 12 (human histone 2A); experiment: ELISA, Ab 0.0032 ug/well
Description: as §2

[27] = biological target: T17, peptide no. 1 (human histone 2A); experiment: ELISA, Ab 0.00064 ug/well
Description: as §2

[28] = biological target: T10, peptide no. 4 (human histone 2A); experiment: ELISA, Ab 0.00064 ug/well
Description: as §2

[29] = biological target: T11, peptide no. 5 (human histone 2A); experiment: ELISA, Ab 0.00064 ug/well
Description: as §2

[30] = biological target: T18, peptide no. 7 (human histone 2A); experiment: ELISA, Ab 0.00064 ug/well
Description: as §2

[31] = biological target: T13, peptide no. 8 (human histone 2A); experiment: ELISA, Ab 0.00064 ug/well
Description: as §2

[32] = biological target: T15, peptide no. 11 (human histone 2A); experiment: ELISA, Ab 0.00064 ug/well
Description: as §2

B1: RhmAb2.102 (antibody, human IgG1, lambda)
heavy: not shown
light: QSVLTQPPSMSAAPGQKVTISCSGSSSNIGNNYVSWYQQVPGTAPKLLIYDDNKRPSGIPGRFSGSKSATSATLGITGLQAGDEADYYCGSWDDNLSVVLFGGGTKLTVLGQPKAAPSVTLFPPSSEELQANKATLVCLISDFYPGAVTVAWKADSSPVKAGVETTTPSKQSNNKYAASSYLSLTPEQWKSHRSYSCQVTHEGSTVEKTVAPTECS
notes: Human IgG1 lambda; also called Rhm2.102
**Q.** Which OD [1] does the source give for B1 here?
**A.** 0.06 OD450

**Q.** And the OD [2]?
**A.** 1.96 OD450

**Q.** What about the OD [3] of the same binder?
**A.** 1.75 OD450

**Q.** And the OD [4]?
**A.** 0.054 OD450

**Q.** And the OD [5]?
**A.** 0.053 OD450

**Q.** And the OD [6]?
**A.** 0.052 OD450

**Q.** What about the OD [7] of the same binder?
**A.** 0.493 OD450

**Q.** What about the OD [8] of the same binder?
**A.** 0.093 OD450

**Q.** And the OD [9]?
**A.** 0.067 OD450

**Q.** And the OD [10]?
**A.** 2.15 OD450

**Q.** What about the OD [11] of the same binder?
**A.** 0.192 OD450

**Q.** And the OD [12]?
**A.** 0.066 OD450

**Q.** And the OD [13]?
**A.** 0.123 OD450

**Q.** And the OD [14]?
**A.** 0.06 OD450

**Q.** What about the OD [15] of the same binder?
**A.** 0.06 OD450

**Q.** And the OD [16]?
**A.** 0.064 OD450

**Q.** What about the OD [17] of the same binder?
**A.** 0.06 OD450

**Q.** And the OD [18]?
**A.** 0.916 OD450

**Q.** And the OD [19]?
**A.** 0.3 OD450

**Q.** And the OD [20]?
**A.** 0.078 OD450

**Q.** What about the OD [21] of the same binder?
**A.** 0.063 OD450

**Q.** What about the OD [22] of the same binder?
**A.** 0.064 OD450

**Q.** What about the OD [23] of the same binder?
**A.** 0.06 OD450

**Q.** And the OD [24]?
**A.** 0.068 OD450

**Q.** What about the OD [25] of the same binder?
**A.** 0.057 OD450

**Q.** What about the OD [26] of the same binder?
**A.** 0.059 OD450

**Q.** And the OD [27]?
**A.** 0.16 OD450

**Q.** What about the OD [28] of the same binder?
**A.** 0.063 OD450

**Q.** And the OD [29]?
**A.** 0.067 OD450

**Q.** And the OD [30]?
**A.** 0.057 OD450

**Q.** What about the OD [31] of the same binder?
**A.** 0.057 OD450

**Q.** What about the OD [32] of the same binder?
**A.** 0.06 OD450
